Paper PMC5789848, “HTLV-1 Tax plugs and freezes UPF1 helicase leading to nonsense-mediated mRNA decay inhibition” (Nature Communications, 2018)
Residue numbers refer to the chain shown, from its start. Names may count otherwise.

Columns and labels:
Conditions in all cases: both partners purified
[1] = target: T1, UPF1-CH-HD (CH and HD domains of UPF1; aa 115-914) (human, UniProt Q92900-2 115-914); experiment: pull-down; GST-Tax as bait on GST resin, purified UPF1 proteins as prey; extensive washes with 0.3 M NaCl (methods: binding buffer with 200 mM NaCl); SDS-PAGE, coomassie staining
T1 construct: UPF1, human, CH and helicase domains, aa 115-914; numbers count on: the 1118 aa form; Tags 'and/or' as printed; source: E. coli BL21 DE3, purified (nickel and calmodulin resin)
T1 sequence (looked up): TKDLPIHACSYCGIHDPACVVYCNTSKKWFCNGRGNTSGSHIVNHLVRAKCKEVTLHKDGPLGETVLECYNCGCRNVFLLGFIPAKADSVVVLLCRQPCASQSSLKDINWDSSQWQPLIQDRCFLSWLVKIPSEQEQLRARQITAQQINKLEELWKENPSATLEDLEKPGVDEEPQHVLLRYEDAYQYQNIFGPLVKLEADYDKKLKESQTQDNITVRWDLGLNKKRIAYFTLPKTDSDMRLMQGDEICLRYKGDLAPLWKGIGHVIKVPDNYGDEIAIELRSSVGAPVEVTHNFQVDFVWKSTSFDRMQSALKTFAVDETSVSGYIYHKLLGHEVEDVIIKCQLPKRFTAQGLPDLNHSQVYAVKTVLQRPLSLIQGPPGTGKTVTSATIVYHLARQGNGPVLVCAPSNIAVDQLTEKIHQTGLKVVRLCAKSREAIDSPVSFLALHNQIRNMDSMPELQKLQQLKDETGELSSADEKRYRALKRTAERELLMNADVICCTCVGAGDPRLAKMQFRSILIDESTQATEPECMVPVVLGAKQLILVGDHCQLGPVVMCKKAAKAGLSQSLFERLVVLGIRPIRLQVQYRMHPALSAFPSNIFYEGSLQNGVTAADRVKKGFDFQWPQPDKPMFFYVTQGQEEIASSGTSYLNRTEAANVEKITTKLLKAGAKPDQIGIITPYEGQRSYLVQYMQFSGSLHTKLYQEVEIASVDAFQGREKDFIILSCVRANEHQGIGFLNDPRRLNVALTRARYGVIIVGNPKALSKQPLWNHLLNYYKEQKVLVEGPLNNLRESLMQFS

[2] = target: T2, UPF1-HD-SQ (HD and SQ domains of UPF1; aa 295-1118) (human, UniProt Q92900-2 295-1118); experiment: as above
T2 construct: UPF1, human, helicase and SQ domains, aa 295-1118; numbers count on: the 1118 aa form; Tags 'and/or' as printed; source: E. coli BL21 DE3, purified (nickel and calmodulin resin)
T2 sequence (looked up): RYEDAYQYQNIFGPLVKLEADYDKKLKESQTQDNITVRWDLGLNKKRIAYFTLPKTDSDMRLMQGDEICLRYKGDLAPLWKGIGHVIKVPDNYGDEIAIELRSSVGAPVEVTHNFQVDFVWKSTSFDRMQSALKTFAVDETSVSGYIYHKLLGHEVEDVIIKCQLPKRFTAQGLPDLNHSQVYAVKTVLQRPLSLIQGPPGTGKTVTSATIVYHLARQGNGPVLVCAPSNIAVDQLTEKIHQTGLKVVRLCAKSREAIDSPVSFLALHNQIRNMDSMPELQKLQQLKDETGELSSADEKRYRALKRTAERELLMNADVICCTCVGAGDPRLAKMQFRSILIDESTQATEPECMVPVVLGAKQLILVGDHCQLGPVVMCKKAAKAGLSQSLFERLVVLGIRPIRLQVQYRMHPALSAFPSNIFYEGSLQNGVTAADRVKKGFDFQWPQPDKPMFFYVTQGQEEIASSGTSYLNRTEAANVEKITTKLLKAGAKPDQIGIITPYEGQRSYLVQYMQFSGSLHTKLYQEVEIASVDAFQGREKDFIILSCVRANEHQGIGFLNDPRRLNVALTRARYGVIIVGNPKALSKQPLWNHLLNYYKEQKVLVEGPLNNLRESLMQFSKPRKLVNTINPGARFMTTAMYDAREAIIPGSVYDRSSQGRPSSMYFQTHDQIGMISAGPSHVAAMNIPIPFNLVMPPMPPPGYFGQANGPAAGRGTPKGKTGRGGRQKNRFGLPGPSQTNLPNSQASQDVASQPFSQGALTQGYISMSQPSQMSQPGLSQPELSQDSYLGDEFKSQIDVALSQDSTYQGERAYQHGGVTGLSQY

[3] = target: T3, UPF1 helicase core domain (UPF1-HD; aa 295-914), C-terminal hexahistidine (human, UniProt Q92900-2 295-914); experiment: as above
T3 construct: UPF1, human, helicase core domain (HD), aa 295-914; numbers count on: the 1118 aa form; for UPF1-HD only the C-terminal hexahistidine is named; also called UPF1-HD-His; HisUPF1-HD; source: E. coli BL21 DE3, purified (Ni-NTA); also in E. coli lysate (co-lysis with Tax-expressing bacteria); not shown: His6, C-terminal, kept
T3 sequence (looked up): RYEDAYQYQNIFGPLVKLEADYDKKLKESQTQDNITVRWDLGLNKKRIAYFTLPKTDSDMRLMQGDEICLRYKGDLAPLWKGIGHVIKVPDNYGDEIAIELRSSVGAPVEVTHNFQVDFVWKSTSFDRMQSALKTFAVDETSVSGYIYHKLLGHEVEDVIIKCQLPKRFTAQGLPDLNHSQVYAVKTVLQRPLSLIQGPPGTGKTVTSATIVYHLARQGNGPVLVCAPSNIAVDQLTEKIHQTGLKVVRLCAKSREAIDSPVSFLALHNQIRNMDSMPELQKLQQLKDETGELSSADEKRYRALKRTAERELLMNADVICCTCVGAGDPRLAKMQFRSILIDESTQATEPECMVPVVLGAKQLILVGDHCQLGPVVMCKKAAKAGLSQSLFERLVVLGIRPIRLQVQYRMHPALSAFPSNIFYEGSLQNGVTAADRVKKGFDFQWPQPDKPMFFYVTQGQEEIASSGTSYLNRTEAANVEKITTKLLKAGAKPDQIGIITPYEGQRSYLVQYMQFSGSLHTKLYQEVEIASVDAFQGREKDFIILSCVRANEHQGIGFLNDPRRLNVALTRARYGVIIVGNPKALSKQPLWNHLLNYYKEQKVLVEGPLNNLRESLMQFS

[4] = target: T4, UPF1 full-length (UPF1-FL; aa 1-1118) (human, UniProt Q92900-2 1-1118); experiment: as above
T4 construct: Up-Frameshift Suppressor 1 Homolog (UPF1), human, aa 1-1118; printed length 1118 aa; source: E. coli BL21 DE3, purified (nickel and calmodulin resin)
T4 sequence (looked up): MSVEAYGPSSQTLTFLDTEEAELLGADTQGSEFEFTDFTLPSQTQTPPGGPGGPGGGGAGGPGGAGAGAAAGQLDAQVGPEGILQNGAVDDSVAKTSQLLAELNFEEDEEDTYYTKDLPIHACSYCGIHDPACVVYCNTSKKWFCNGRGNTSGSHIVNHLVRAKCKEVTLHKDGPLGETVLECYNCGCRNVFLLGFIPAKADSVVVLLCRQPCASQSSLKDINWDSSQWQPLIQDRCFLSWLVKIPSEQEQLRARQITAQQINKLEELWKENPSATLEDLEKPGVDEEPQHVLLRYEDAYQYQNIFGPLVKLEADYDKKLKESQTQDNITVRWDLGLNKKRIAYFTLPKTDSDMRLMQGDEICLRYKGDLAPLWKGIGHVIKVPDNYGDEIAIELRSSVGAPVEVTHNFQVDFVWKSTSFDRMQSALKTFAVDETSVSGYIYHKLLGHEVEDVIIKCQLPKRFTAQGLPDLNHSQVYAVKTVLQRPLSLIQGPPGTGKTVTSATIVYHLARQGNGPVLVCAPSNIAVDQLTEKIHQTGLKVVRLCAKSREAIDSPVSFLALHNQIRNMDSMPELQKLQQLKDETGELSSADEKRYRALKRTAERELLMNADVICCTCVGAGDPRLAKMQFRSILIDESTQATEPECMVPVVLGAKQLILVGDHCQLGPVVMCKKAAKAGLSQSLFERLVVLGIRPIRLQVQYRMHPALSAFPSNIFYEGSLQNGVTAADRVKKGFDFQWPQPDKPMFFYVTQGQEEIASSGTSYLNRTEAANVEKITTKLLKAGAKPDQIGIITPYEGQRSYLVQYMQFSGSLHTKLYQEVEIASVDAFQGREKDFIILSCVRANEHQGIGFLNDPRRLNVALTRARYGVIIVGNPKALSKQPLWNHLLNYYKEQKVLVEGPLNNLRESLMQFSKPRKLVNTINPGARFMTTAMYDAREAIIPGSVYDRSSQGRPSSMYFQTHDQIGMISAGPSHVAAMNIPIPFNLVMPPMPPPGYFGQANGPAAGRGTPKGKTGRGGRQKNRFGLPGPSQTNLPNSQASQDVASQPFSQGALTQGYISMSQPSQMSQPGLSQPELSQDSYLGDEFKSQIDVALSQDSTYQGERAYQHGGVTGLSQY

[5] = target: T5, GST-Tax_(CACA) (HTLV-1 Tax with C23 and C29 changed to alanine, N-terminal GST fusion) (HTLV-1, UniProt P03409 1-353, C23A | C29A); experiment: BLI; BLItz; GST-Tax covalently bound to an AR2G sensor; UPF1 His-HD proteins in running buffer (300 mM NaCl, 20 mM phosphate, 0.02% Tween 20, 0.1% albumin); 250 s association, 60 s dissociation
T5 construct: Tax protein of HTLV-1, 353 amino acids, double mutant of the zinc finger region; plasmid pGEX2T-Tax_(CACA) made from pGEX2T-TaxWT; also called GST-tagged Tax_(CACA); source: E. coli BL21-DE3, purified (glutathione magnetic beads); also in E. coli lysate (co-lysis with HisUPF1-HD bacteria); not shown: GST, N-terminal, kept

B1: GST-Tax (HTLV-1 Tax, wild type, N-terminal glutathione S-transferase fusion) (natural protein)
chain: not shown
notes: Tax protein of human T-cell lymphotropic virus type I (HTLV-1); also called TaxWT; HTLV-1 GST-Tax; source: E. coli BL21-DE3, purified (glutathione magnetic beads); also in E. coli lysate (co-lysis with HisUPF1-HD bacteria); not shown: GST, N-terminal, kept
binding result [1]: binds
binding result [2]: binds
binding result [3]: binds
binding result [4]: binds

B2: UPF1-HD_(DE636AA), histidine-tagged (domain or fragment)
chain: T3 sequence (looked up) with D342A, E343A
notes: numbers count on: the 1118 aa form; also called UPF1-HD_(DE633AA); UPF1-HD_(DEAA); source: E. coli BL21 DE3, purified (Ni-NTA)
fold change of binding against WT [5]: ~1.8 times

B3: UPF1-HD_(R843S), histidine-tagged (domain or fragment)
chain: T3 sequence (looked up) with R549S
notes: UPF1, human, helicase core domain aa 295-914 (as UPF1-HD) with R843S; numbers count on: the 1118 aa form; source: E. coli, purified (as the other His-tagged UPF1 proteins)
fold loss of affinity against WT [5]: 4 times
